Experimental data as given in the supplement of paper PMC10065799, “High-throughput profiling of sequence recognition by tyrosine kinases and SH2 domains using bacterial peptide display” (eLife, 2023).

What was measured:
FGFR3 = FGFR3 (UniProt P22607); test: phosphorylation enrichment, bacterial display (enrichment ratio); higher = better substrate or ligand; peptides without Tyr show the background
EPHB2 = EPHB2 (UniProt P29323); test: as above
Hck = Hck (UniProt P08631); test: as above
EPHB1 = EPHB1 (UniProt P54762); test: as above
Chain of EPHB1 (P54762 whole entry, looked up): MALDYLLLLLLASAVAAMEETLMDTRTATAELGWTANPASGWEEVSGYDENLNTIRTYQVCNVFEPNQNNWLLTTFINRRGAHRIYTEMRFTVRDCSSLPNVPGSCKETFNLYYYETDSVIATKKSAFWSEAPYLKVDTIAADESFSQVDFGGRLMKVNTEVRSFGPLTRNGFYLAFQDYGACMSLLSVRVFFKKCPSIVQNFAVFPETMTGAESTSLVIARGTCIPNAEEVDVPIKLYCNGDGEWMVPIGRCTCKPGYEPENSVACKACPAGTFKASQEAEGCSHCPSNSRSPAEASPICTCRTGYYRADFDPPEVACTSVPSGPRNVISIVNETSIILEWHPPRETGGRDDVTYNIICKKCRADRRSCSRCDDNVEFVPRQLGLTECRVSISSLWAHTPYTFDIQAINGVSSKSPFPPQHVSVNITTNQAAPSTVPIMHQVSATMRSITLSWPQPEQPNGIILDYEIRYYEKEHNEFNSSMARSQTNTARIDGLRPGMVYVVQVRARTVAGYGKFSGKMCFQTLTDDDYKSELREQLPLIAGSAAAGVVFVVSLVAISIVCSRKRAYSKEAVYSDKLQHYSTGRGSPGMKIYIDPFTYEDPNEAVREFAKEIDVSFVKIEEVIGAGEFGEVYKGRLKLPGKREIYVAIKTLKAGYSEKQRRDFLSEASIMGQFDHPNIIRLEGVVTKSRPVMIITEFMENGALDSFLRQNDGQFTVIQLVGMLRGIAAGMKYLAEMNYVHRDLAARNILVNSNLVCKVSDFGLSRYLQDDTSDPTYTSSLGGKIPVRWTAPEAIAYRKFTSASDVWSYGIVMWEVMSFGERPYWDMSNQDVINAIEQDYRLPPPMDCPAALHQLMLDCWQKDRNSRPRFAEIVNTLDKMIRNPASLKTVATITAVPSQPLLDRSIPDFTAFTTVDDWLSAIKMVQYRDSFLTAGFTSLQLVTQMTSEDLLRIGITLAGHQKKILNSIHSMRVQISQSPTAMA

Fer (mouse) = test: as above
c-Abl (mouse) = test: as above
FGFR1 = FGFR1 (UniProt P11362); test: as above
Chain of FGFR1 (P11362 whole entry, looked up): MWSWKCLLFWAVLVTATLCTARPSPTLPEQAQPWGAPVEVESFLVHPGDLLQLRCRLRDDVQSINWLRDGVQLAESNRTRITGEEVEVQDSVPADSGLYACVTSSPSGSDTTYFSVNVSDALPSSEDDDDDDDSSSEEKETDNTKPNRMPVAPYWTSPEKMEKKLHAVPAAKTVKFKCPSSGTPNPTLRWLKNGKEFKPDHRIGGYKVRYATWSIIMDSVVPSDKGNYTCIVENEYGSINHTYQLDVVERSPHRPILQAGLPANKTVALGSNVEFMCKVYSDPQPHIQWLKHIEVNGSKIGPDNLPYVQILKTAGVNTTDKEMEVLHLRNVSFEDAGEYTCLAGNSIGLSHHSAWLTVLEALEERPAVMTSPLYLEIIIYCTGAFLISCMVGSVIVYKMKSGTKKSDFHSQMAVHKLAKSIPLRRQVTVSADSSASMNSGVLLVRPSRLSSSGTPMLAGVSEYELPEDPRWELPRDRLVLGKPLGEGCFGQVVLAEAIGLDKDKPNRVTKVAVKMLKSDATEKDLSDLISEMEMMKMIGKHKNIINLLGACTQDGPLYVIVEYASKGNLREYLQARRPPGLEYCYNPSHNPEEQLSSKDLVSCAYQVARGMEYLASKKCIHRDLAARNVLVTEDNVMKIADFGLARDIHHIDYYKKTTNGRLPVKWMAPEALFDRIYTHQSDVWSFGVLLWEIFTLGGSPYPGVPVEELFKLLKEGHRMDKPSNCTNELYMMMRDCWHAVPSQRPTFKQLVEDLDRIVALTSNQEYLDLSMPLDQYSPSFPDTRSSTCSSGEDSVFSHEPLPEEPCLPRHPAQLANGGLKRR

AncSZ = test: as above
Fyn = Fyn (UniProt P06241); test: as above
Chain of Fyn (P06241 whole entry, looked up): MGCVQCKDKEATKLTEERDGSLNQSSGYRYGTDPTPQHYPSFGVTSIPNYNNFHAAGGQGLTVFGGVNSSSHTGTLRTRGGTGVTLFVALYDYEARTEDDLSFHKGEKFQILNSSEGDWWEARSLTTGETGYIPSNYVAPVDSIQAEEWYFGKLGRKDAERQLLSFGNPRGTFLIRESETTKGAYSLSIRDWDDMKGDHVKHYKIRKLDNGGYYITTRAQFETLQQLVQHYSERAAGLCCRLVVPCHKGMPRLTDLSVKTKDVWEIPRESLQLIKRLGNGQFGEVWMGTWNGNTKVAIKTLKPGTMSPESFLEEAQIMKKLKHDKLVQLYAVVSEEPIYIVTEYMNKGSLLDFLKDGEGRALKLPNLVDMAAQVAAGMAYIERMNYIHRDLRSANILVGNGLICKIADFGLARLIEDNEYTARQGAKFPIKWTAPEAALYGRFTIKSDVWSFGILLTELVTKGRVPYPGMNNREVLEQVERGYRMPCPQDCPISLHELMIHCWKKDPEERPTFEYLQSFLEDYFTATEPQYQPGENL

MERTK = MERTK (UniProt Q12866); test: as above
Jak2 = Jak2 (UniProt O60674); test: as above
c-Src = test: as above
Fes = Fes (UniProt P07332); test: as above
Chain of Fes (P07332 whole entry, looked up): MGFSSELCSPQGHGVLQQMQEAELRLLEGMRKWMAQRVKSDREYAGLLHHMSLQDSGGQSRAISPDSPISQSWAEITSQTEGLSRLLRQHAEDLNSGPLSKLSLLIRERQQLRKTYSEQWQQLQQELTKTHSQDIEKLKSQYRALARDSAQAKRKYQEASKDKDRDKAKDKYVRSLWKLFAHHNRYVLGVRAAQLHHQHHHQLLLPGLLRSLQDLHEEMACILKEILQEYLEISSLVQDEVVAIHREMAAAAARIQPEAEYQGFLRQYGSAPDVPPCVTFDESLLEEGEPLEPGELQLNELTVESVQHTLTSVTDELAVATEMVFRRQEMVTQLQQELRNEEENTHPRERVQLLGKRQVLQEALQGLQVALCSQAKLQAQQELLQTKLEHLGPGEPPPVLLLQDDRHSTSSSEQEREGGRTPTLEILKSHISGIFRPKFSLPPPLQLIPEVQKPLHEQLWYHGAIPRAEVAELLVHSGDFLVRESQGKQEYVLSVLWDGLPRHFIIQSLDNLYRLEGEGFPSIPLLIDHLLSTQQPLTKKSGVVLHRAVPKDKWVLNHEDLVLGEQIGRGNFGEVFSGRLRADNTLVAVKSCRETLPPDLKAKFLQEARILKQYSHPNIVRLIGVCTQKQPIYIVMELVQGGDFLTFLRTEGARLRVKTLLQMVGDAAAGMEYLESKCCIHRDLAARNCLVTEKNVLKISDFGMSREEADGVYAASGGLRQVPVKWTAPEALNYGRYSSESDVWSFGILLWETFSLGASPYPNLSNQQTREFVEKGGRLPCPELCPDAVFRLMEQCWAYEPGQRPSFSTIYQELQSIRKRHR

Grb2 SH2 = Grb2 SH2 (UniProt P62993); test: SH2 binding enrichment of the phosphorylated peptide, bacterial display (enrichment ratio); higher = better substrate or ligand; peptides without Tyr show the background
SHP2-C SH2 = test: as above
c-Src SH2 = test: as above
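Throughout, for SH2 binding enrichment of the phosphorylated peptide, bacterial display: peptide library displayed on the E. coli surface as eCPX fusions, selected cells deep-sequenced, score is each peptide's frequency after selection divided by its frequency in the input.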
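Throughout, for phosphorylation enrichment, bacterial display: 11-residue human phosphosite peptides and single-mutation variants displayed on the E. coli surface, counted by deep sequencing, each peptide's frequency after selection divided by its frequency in the unselected input library; frequency after pTyr selection over input frequency; kinase dosed for 20-30% of maximal phosphorylation in three min.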

Chain of EPHB2 (P29323 whole entry, looked up): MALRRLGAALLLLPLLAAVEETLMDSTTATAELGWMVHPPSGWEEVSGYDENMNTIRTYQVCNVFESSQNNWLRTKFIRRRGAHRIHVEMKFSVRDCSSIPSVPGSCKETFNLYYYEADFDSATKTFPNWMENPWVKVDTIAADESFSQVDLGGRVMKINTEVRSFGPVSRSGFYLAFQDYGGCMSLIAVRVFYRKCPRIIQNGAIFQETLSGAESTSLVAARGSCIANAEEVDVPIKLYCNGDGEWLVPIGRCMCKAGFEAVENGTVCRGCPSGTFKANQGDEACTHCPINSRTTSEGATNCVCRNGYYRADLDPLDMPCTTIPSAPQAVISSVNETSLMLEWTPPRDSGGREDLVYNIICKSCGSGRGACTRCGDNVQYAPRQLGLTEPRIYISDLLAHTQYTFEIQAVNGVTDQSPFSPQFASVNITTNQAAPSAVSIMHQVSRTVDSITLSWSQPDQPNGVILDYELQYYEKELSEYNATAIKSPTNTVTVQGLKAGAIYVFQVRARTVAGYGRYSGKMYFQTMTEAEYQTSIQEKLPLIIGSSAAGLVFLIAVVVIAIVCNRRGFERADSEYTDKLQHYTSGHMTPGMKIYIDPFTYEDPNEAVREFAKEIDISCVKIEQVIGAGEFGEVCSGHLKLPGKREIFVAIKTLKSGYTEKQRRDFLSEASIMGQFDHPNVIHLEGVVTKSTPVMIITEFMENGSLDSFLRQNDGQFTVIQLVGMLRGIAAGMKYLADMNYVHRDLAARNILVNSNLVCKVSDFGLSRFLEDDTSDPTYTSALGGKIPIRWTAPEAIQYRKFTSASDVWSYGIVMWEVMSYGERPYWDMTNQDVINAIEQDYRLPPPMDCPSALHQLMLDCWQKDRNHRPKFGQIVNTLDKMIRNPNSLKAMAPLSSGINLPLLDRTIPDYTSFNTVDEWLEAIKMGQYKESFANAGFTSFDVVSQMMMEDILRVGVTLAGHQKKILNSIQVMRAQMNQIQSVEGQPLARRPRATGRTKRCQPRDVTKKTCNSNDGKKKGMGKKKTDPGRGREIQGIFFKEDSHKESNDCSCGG
Chain of FGFR3 (P22607 whole entry, looked up): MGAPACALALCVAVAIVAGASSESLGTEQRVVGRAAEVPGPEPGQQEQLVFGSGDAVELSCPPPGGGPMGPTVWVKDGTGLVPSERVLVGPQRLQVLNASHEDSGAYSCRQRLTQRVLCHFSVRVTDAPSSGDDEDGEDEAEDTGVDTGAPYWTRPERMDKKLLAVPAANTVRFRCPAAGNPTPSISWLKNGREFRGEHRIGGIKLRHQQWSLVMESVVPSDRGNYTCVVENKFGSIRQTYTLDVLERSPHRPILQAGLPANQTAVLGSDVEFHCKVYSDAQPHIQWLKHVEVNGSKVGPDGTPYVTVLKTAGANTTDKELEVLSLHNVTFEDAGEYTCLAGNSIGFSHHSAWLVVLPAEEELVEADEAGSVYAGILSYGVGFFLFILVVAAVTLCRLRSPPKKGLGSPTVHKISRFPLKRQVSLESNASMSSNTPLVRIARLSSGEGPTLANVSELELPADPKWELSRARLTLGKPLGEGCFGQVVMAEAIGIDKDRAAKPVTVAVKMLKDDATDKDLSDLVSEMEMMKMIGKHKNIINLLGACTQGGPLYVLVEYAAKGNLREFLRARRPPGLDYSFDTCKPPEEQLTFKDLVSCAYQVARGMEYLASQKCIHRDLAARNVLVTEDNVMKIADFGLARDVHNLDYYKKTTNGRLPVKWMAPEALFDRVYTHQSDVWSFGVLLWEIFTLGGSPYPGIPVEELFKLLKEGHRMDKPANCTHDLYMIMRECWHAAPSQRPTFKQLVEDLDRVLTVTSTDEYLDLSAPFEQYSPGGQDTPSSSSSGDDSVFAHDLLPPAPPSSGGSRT

| Sequence | phosphorylation enrichment (FGFR3) | phosphorylation enrichment (EPHB2) | phosphorylation enrichment (Hck) | phosphorylation enrichment (EPHB1) | phosphorylation enrichment (Fer (mouse)) | phosphorylation enrichment (c-Abl (mouse)) | phosphorylation enrichment (FGFR1) | phosphorylation enrichment (AncSZ) | phosphorylation enrichment (Fyn) | phosphorylation enrichment (MERTK) | phosphorylation enrichment (Jak2) | phosphorylation enrichment (c-Src) | phosphorylation enrichment (Fes) | SH2 binding enrichment (Grb2 SH2) | SH2 binding enrichment (SHP2-C SH2) | SH2 binding enrichment (c-Src SH2) |
| --- | --- | --- | --- | --- | --- | --- | --- | --- | --- | --- | --- | --- | --- | --- | --- | --- |
| KINKMYSDRAM | 0.371 | 0.377 | 0.396 | 0.311 | 0.336 | 0.467 | 0.417 | 0.53 | 0.361 | 0.423 | 0.419 | 0.345 | 0.624 | 0.632 | 0.639 | 0.418 |
| KKFPDYIQIAR [SGMS2_Y59_M64R_YF] | 2.26 | 0.649 | 0.478 | 3.85 | 0.399 | 0.657 | 4.29 | 0.848 | 0.432 | 0.421 | 1.15 | 0.488 | 0.713 | 1.13 | 0.884 | 0.825 |
| KKGIVYIFNGR [ITGAV_Y404] | 0.501 | 0.507 | 0.423 | 0.403 | 0.437 | 0.565 | 0.417 | 0.768 | 0.452 | 0.428 | 0.868 | 0.366 | 0.957 | 2.3 | 1.61 | 1.86 |
| KKKKQYKDKFL [CASK_Y708_YF] | 0.55 | 0.634 | 0.589 | 0.687 | 0.502 | 0.699 | 0.572 | 0.893 | 0.701 | 0.782 | 0.724 | 0.739 | 0.642 | 0.683 | 0.408 | 0.453 |
| KKKKQYKGKYL [CASK_Y708_D710G] | 0.584 | 0.54 | 0.513 | 0.502 | 0.444 | 0.529 | 0.474 | 0.667 | 0.57 | 0.629 | 0.507 | 0.75 | 0.582 | 0.669 | 0.302 | 0.436 |
| KKYFSYAWPFY [BRDT_Y291_H288Y] | 0.621 | 0.452 | 0.415 | 0.497 | 0.395 | 0.712 | 0.475 | 0.937 | 0.383 | 1.96 | 1.24 | 0.435 | 1.03 | 1.93 | 1.66 | 1.43 |
| KLFFIYTPGTT [SLC27A4_Y245_S247P_YF] | 0.877 | 0.675 | 0.509 | 0.637 | 0.521 | 0.848 | 0.553 | 1.49 | 0.447 | 0.363 | 1.45 | 0.46 | 1.49 | 0.598 | 0.565 | 0.39 |
| KLFRVYCDMNT [FGB_Y269_P265L_YF] | 0.701 | 0.619 | 0.471 | 0.777 | 0.523 | 0.838 | 0.548 | 1.11 | 0.463 | 0.432 | 1.17 | 0.463 | 1.33 | 0.75 | 0.65 | 0.918 |
| KLIETYFSKNF [PLP1_Y50_YF] | 0.589 | 0.452 | 0.519 | 0.474 | 0.4 | 0.668 | 0.449 | 0.942 | 0.474 | 0.427 | 0.87 | 0.558 | 0.99 | 0.9 | 0.626 | 0.542 |
| KLPDAYEPLIL [G6PD_Y437_R439P] | 0.674 | 0.494 | 1.08 | 0.55 | 2.5 | 0.79 | 0.53 | 1.14 | 0.502 | 0.498 | 0.921 | 0.752 | 1.1 | 0.964 | 0.917 | 1.49 |
| KLPDAYERLIL [G6PD_Y437] | 0.561 | 0.49 | 0.582 | 0.545 | 0.634 | 0.796 | 0.992 | 0.756 | 0.491 | 0.522 | 0.591 | 0.542 | 0.944 | 0.949 | 0.723 | 2.48 |
| KNDSKYVVKGN [KIT_Y823_N822K] | 0.444 | 0.317 | 0.379 | 0.326 | 0.258 | 0.531 | 0.382 | 0.52 | 0.314 | 0.316 | 0.677 | 0.473 | 0.56 | 0.999 | 0.653 | 0.572 |
| KNEVLYDEENH [ARFGEF1_Y314_G316E] | 0.671 | 0.618 | 0.547 | 0.568 | 0.5 | 0.997 | 0.591 | 1.25 | 0.537 | 0.401 | 1.3 | 0.582 | 1.4 | 0.664 | 0.789 | 0.636 |
| KNNDGYIDYAE [MCFD2_Y135] | 0.736 | 0.658 | 0.625 | 0.538 | 0.464 | 0.656 | 0.606 | 1.17 | 0.536 | 0.474 | 1.01 | 0.465 | 1.13 | 0.945 | 0.695 | 1.01 |
| KNRDVYSSDFF [USP24_Y2134_YF] | 0.544 | 1.73 | 0.832 | 1.69 | 0.429 | 0.752 | 0.718 | 0.651 | 0.833 | 3.39 | 0.693 | 0.952 | 0.828 | 0.916 | 0.55 | 0.588 |
| KPGVNYFFQVS | 1.09 | 0.577 | 0.588 | 0.695 | 0.582 | 0.801 | 0.85 | 1.15 | 0.538 | 0.508 | 1.28 | 0.408 | 1.38 | 0.993 | 1.18 | 0.606 |
| KQRKEYMHRRQ [IQGAP2_Y710] | 0.519 | 0.444 | 0.526 | 0.551 | 0.437 | 0.649 | 0.375 | 0.696 | 0.477 | 0.452 | 0.636 | 0.518 | 0.715 | 0.78 | 0.392 | 0.447 |
